In the supplement of paper PMC9876800:

Test system: peptide library, one residue held at a place counted from the S/T acceptor
Assay: relative phosphorylation of the sub-library (ratio to the mean residue at this position); higher = residue favoured
Conditions: human
How it was run: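 Relative sub-library phosphorylation is a ratio to the mean residue at the same position. Purified recombinant kinases were incubated under kinase-specific conditions with biotinylated degenerate peptide sub-libraries, each fixing one residue at one position around a central Ser/Thr, using 50 μM peptide and 50 μM ATP spiked with γ-32P-ATP for 90 min. Spots captured on streptavidin membranes were phosphorimaged and quantified by densitometry.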

Sequence of CHUK, construct: Full length (O15111 whole entry, looked up): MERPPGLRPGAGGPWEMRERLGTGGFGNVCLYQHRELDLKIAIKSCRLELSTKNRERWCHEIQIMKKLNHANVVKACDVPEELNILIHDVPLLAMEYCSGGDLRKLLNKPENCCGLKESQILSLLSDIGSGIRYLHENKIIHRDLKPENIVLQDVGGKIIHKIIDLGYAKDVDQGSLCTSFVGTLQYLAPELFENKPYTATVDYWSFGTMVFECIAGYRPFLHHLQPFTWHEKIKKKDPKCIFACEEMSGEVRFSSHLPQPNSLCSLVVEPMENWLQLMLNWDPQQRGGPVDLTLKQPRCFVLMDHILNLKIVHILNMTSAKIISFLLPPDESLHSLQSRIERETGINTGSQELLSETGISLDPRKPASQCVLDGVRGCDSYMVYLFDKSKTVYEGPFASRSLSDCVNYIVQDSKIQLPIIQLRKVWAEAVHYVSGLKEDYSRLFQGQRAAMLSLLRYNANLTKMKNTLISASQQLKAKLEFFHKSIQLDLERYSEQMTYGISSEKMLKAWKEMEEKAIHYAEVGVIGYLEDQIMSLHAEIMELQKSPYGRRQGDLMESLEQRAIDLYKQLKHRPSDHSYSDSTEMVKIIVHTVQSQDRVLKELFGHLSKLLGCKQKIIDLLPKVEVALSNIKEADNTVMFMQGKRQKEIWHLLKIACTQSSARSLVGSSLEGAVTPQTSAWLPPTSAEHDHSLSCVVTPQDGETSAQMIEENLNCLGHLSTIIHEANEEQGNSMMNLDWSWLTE
Sequence of MAPK1, construct: Full length (P28482 whole entry, looked up): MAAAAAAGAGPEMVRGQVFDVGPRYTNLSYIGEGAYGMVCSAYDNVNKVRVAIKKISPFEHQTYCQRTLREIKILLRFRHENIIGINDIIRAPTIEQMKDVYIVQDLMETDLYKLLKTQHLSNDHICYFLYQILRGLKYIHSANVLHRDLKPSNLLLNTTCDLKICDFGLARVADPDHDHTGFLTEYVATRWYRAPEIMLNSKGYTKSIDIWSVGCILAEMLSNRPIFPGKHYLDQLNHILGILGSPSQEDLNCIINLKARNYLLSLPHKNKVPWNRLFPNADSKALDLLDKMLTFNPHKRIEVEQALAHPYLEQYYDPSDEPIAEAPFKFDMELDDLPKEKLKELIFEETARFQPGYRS
Sequence of CAMK2A, construct: Full length (Q9UQM7 whole entry, looked up): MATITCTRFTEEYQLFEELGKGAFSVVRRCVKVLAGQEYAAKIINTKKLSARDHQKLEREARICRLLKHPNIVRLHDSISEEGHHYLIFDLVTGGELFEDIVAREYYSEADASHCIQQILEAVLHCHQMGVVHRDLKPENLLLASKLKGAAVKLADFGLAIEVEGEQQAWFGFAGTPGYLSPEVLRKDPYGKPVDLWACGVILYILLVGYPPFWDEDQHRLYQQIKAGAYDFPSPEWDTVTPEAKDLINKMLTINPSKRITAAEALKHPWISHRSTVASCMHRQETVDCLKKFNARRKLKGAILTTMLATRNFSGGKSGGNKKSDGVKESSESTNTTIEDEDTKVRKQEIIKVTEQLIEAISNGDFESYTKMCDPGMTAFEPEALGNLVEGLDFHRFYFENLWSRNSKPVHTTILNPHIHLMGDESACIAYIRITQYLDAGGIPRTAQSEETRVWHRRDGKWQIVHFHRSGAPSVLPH
Sequence of CDK18, construct: Full length (Q07002 whole entry, looked up): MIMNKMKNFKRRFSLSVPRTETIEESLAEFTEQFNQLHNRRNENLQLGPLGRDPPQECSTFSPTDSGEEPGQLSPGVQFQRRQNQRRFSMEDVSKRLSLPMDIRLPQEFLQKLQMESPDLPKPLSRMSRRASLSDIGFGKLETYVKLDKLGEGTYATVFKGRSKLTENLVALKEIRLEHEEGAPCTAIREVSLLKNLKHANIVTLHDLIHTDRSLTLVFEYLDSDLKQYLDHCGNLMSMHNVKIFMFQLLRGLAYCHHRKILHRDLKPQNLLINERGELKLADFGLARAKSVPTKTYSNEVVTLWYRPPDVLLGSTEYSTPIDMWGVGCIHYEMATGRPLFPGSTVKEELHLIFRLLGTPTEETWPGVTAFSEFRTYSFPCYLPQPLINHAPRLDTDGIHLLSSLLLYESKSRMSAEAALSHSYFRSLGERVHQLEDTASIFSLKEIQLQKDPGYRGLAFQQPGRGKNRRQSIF

MAPK1, construct: Full length (from UniProt P28482)
relative phosphorylation
Conditions | at +1 | at +2 | at +3 | at +4 | at -1 | at -2 | at -3 | at -4 | at -5
A fixed | 0.973 | 0.668 | 0.858 | 0.681 | 0.711 | 0.878 | 1 | 0.906 | 0.914
D fixed | 0.121 | 0.537 | 0.684 | 0.75 | 0.577 | 0.465 | 1.09 | 1.21 | 1.23
E fixed | 0.0909 | 0.28 | 0.721 | 0.679 | 0.447 | 0.486 | 1.19 | 1.28 | 0.955
F fixed | 0.427 | 1.43 | 1.46 | 1.18 | 0.906 | 0.58 | 0.839 | 0.886 | 1.02
G fixed | 0.756 | 1.02 | 0.866 | 0.753 | 0.711 | 0.513 | 1.06 | 1.02 | 1.02
H fixed | 0.474 | 1.66 | 1.37 | 1.17 | 1.23 | 0.622 | 1.02 | 1.06 | 1.21
I fixed | 0.235 | 0.91 | 1.05 | 1.15 | 0.727 | 1.49 | 0.814 | 1.08 | 0.752
K fixed | 0.472 | 1.6 | 0.821 | 1.55 | 1.59 | 0.547 | 0.723 | 1.01 | 1.07
L fixed | 0.426 | 1.26 | 1.15 | 1 | 1.43 | 1.87 | 0.915 | 0.817 | 0.912
M fixed | 0.4 | 1.16 | 1.13 | 1.11 | 1.35 | 1.35 | 1.07 | 0.993 | 0.812
N fixed | 0.216 | 1.06 | 0.676 | 0.933 | 0.86 | 0.776 | 1.11 | 1.02 | 1.07
P fixed | 10.5 | 0.399 | 1.05 | 0.748 | 0.916 | 3.03 | 1.48 | 0.895 | 0.946
Q fixed | 0.289 | 0.785 | 0.682 | 0.96 | 1.25 | 1.1 | 1.15 | 1.09 | 1.03
R fixed | 0.442 | 1.67 | 0.931 | 1.07 | 1.76 | 0.901 | 1.11 | 1.11 | 1.18
V fixed | 0.256 | 0.8 | 0.799 | 0.853 | 0.669 | 1.34 | 0.79 | 0.643 | 0.689
W fixed | 0.453 | 0.885 | 1.41 | 1.3 | 0.828 | 0.512 | 0.807 | 1.04 | 1.05
Y fixed | 0.439 | 0.869 | 1.35 | 1.1 | 1.04 | 0.549 | 0.838 | 0.945 | 1.15
pThr fixed | 0.432 | 0.683 | 0.642 | 0.847 | 0.381 | 1.05 | 1.2 | 1.18 | 1.16
pTyr fixed | 0.517 | 0.404 | 1.01 | 0.861 | 0.351 | 0.691 | 1.31 | 0.918 | 1.18

CDK18, construct: Full length (from UniProt Q07002)
relative phosphorylation
Conditions | at +1 | at +2 | at +3 | at +4 | at -1 | at -2 | at -3 | at -4 | at -5
A fixed | 0.339 | 0.788 | 1.01 | 1.29 | 1.11 | 1.37 | 1.15 | 1.33 | 1.04
D fixed | 0.148 | 0.632 | 0.364 | 0.521 | 0.489 | 0.384 | 0.605 | 0.835 | 0.919
E fixed | 0.127 | 0.377 | 0.292 | 0.355 | 0.348 | 0.463 | 0.719 | 0.823 | 0.831
F fixed | 0.196 | 0.581 | 1.03 | 0.759 | 0.57 | 0.705 | 0.539 | 0.696 | 0.844
G fixed | 1.13 | 0.837 | 0.922 | 2.23 | 2.13 | 1.11 | 2.12 | 1.24 | 1.15
H fixed | 0.274 | 1.23 | 0.695 | 1.21 | 0.987 | 0.807 | 1.05 | 1.02 | 1.37
I fixed | 0.178 | 0.705 | 1.03 | 0.634 | 0.247 | 0.72 | 0.569 | 0.788 | 0.804
K fixed | 0.316 | 2.28 | 0.862 | 1.33 | 1.67 | 0.671 | 0.937 | 1.48 | 1.53
L fixed | 0.199 | 0.877 | 2.5 | 0.581 | 0.561 | 0.963 | 0.589 | 1 | 1.16
M fixed | 0.196 | 0.901 | 1.46 | 0.699 | 0.934 | 0.887 | 0.648 | 0.718 | 0.799
N fixed | 0.239 | 1.11 | 0.806 | 1.16 | 1.02 | 0.777 | 1.06 | 1.27 | 1.12
P fixed | 12.4 | 0.972 | 2.05 | 0.831 | 1.71 | 3.93 | 2.29 | 1.43 | 1.12
Q fixed | 0.279 | 1.06 | 1.03 | 0.969 | 1.13 | 0.999 | 1.03 | 1.01 | 0.77
R fixed | 0.281 | 2.23 | 0.719 | 1.79 | 1.9 | 0.94 | 1.33 | 0.941 | 0.827
V fixed | 0.263 | 0.744 | 1.04 | 0.703 | 0.379 | 0.852 | 0.768 | 0.596 | 0.677
W fixed | 0.236 | 0.782 | 0.703 | 1.09 | 0.911 | 0.886 | 0.852 | 1.05 | 1.12
Y fixed | 0.184 | 0.887 | 0.498 | 0.845 | 0.914 | 0.543 | 0.748 | 0.765 | 0.911
pThr fixed | 0.415 | 0.681 | 0.949 | 0.372 | 0.316 | 0.823 | 0.982 | 0.951 | 0.78
pTyr fixed | 0.508 | 0.48 | 0.815 | 0.591 | 0.341 | 0.572 | 0.943 | 0.82 | 1.07

CAMK2A, construct: Full length (from UniProt Q9UQM7)
relative phosphorylation
Conditions | at +1 | at +2 | at +3 | at +4 | at -1 | at -2 | at -3 | at -4 | at -5
A fixed | 0.609 | 0.742 | 0.885 | 0.931 | 0.81 | 1.37 | 0.689 | 1.08 | 0.921
D fixed | 0.816 | 5.44 | 2.48 | 1.96 | 1.65 | 0.692 | 0.352 | 0.607 | 0.452
E fixed | 1.32 | 2.31 | 2.59 | 1.81 | 1.16 | 0.765 | 0.464 | 0.985 | 0.461
F fixed | 2.06 | 0.382 | 0.664 | 0.797 | 0.567 | 0.62 | 0.53 | 0.867 | 1.36
G fixed | 0.59 | 0.713 | 1.11 | 1.11 | 0.789 | 1.02 | 0.591 | 0.941 | 0.758
H fixed | 0.848 | 0.976 | 1.06 | 1.1 | 1.05 | 0.992 | 0.978 | 1.08 | 1.05
I fixed | 1.09 | 0.334 | 0.431 | 0.511 | 0.374 | 0.31 | 0.369 | 0.656 | 0.866
K fixed | 0.719 | 0.694 | 0.803 | 0.792 | 1.36 | 1.21 | 2.13 | 1.42 | 0.793
L fixed | 1.09 | 0.331 | 0.642 | 0.513 | 0.629 | 0.4 | 0.378 | 0.733 | 1.79
M fixed | 1.42 | 0.387 | 0.515 | 0.568 | 0.753 | 1.07 | 0.517 | 0.96 | 1.06
N fixed | 0.955 | 1.02 | 1.06 | 0.977 | 1.65 | 1.09 | 0.706 | 0.689 | 0.618
P fixed | 0.594 | 0.73 | 1.01 | 1.55 | 1.88 | 0.659 | 1.13 | 1.43 | 1.25
Q fixed | 1.41 | 0.696 | 0.973 | 1 | 1.37 | 2.96 | 0.902 | 1.04 | 0.747
R fixed | 0.735 | 0.781 | 0.762 | 0.557 | 1.02 | 1.47 | 5.38 | 1.4 | 1.27
V fixed | 1.22 | 0.44 | 0.614 | 0.664 | 0.527 | 0.389 | 0.379 | 0.776 | 0.867
W fixed | 0.527 | 0.452 | 0.634 | 1.15 | 0.5 | 1.21 | 0.837 | 1.31 | 1.59
Y fixed | 1 | 0.574 | 0.774 | 1.01 | 0.905 | 0.765 | 0.665 | 1.02 | 1.15
pThr fixed | 1.89 | 1.82 | 2.45 | 4.37 | 0.489 | 0.486 | 0.496 | 0.738 | 0.605
pTyr fixed | 1.53 | 4.53 | 2.49 | 2.88 | 1.8 | 0.503 | 0.514 | 0.804 | 0.813

CHUK, construct: Full length (from UniProt O15111)
relative phosphorylation
Conditions | at +1 | at +2 | at +3 | at +4 | at -1 | at -2 | at -3 | at -4 | at -5
A fixed | 0.486 | 0.954 | 0.902 | 0.978 | 0.716 | 1.1 | 0.777 | 1.15 | 1.29
D fixed | 0.518 | 1.23 | 1.9 | 1.66 | 1.19 | 0.571 | 1.27 | 2.17 | 2.57
E fixed | 0.61 | 1.26 | 2.02 | 1.55 | 1.11 | 1.1 | 1.53 | 2.15 | 2.29
F fixed | 1.22 | 0.635 | 0.576 | 0.717 | 0.688 | 2 | 0.809 | 0.602 | 0.657
G fixed | 1.18 | 1.55 | 1.48 | 1.43 | 0.615 | 0.548 | 1.12 | 1.55 | 1.4
H fixed | 1.01 | 1.34 | 1.14 | 1.17 | 1.17 | 1.23 | 1.15 | 0.888 | 1.12
I fixed | 1.94 | 0.78 | 0.548 | 0.769 | 0.346 | 0.874 | 0.365 | 0.49 | 0.395
K fixed | 0.28 | 0.408 | 0.358 | 0.746 | 1.5 | 0.25 | 0.875 | 0.417 | 0.556
L fixed | 1.68 | 0.726 | 0.688 | 0.724 | 0.702 | 1.59 | 0.408 | 0.552 | 0.548
M fixed | 1.86 | 0.982 | 0.772 | 0.918 | 0.962 | 1.06 | 0.784 | 0.79 | 0.591
N fixed | 0.931 | 1.9 | 1.28 | 1.17 | 1.58 | 1.35 | 1.69 | 1.17 | 1.22
P fixed | 0.282 | 1.12 | 1.16 | 1.24 | 1.54 | 0.68 | 2.06 | 1.87 | 0.981
Q fixed | 0.729 | 1.25 | 1.24 | 1.13 | 1.47 | 0.804 | 1.18 | 0.978 | 0.889
R fixed | 0.162 | 0.27 | 0.26 | 0.177 | 0.641 | 0.176 | 0.728 | 0.314 | 0.476
V fixed | 1.46 | 1.1 | 0.636 | 0.667 | 0.688 | 0.644 | 0.567 | 0.547 | 0.664
W fixed | 1.29 | 0.756 | 1.04 | 0.978 | 0.784 | 0.663 | 0.704 | 0.693 | 0.791
Y fixed | 1.36 | 0.75 | 1.01 | 0.977 | 1.31 | 2.36 | 0.991 | 0.68 | 0.562
pThr fixed | 0.978 | 1.06 | 1.08 | 1.62 | 0.755 | 1.24 | 1.4 | 1.56 | 1.06
pTyr fixed | 1.1 | 1.25 | 0.908 | 1.08 | 1.55 | 5.95 | 2.02 | 1.32 | 0.984
